Measurements reported in the supplement of paper PMC9732359.
± gives the uncertainty stated by the source.

Experiment: protein stability index of a GFP-peptide fusion (yeast GPS) (PSI 1-4); higher = more stable; sorted into four equal gates, so the index is relative within each strain
Outline: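 Tiled 17-residue yeast protein peptides were fused downstream of GFP in a plasmid that also expresses Cherry, and the pooled library was carried in yeast. Mid-log cultures in leucine-free medium were sorted into four equal gates by GFP/Cherry fluorescence ratio, and plasmids from each gate were PCR-amplified and Illumina-sequenced, with reads assigned to strains by barcodes. The protein stability index for each peptide was each gate's read frequency times its gate number, summed.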

| Sequence | protein stability index (doa10∆) | protein stability index (pdr5∆) | protein stability index (san1∆) | protein stability index (ubr1∆) |
| --- | --- | --- | --- | --- |
| QQLVDSEKRLDHFIHLR [SNF12] | 2.3 ± 0.12 | 2.75 ± 0.07 | 2.56 ± 0.078 | 2.68 ± 0.076 |
| IKELRSKGYPIQFLTIG [FAS1] | 1.87 ± 0.11 | 2.22 ± 0.068 | 1.43 ± 0.096 | 1.68 ± 0.071 |
| QFKSKEVEKAHPIRLYT [PRP8] | 3.17 ± 0.085 | 2.88 ± 0.056 | 2.71 ± 0.063 | 2.86 ± 0.06 |
| QNNLPPNFFLTLISENW [BRR2] | 2.94 ± 0.073 | 3.13 ± 0.069 | 2.91 ± 0.071 | 2.94 ± 0.072 |
| AGEFGLKNKREIYRISF [RPS9B] | 2.56 ± 0.065 | 2.94 ± 0.091 | 3.08 ± 0.14 | 2.77 ± 0.066 |
| IPIGHVHVIHFQHADNS [AAR2] | 2.86 ± 0.11 | 2.71 ± 0.073 | 2.9 ± 0.074 | 2.65 ± 0.05 |
| NASLTIEDEDEPFNAGI [SMC1] | 3.29 ± 0.13 | 3.15 ± 0.12 | 3.39 ± 0.083 | 3.23 ± 0.085 |
| PCVEDGFVIQDRETALD [RPB2] | 3.17 ± 0.088 | 3.18 ± 0.11 | 3.16 ± 0.19 | 3.2 ± 0.078 |
| YTYSSTLSHLRRTNTPI [RPB2] | 2.06 ± 0.043 | 2.13 ± 0.04 | 2.23 ± 0.063 | 2.17 ± 0.033 |
| GYIKNNKKIYQWNKLTS [POP6] | 2.93 ± 0.085 | 2.91 ± 0.089 | 2.89 ± 0.072 | 3.06 ± 0.081 |
| KEKIKGLQDEIMKIGGI [SMC4] | 3 ± 0.09 | 3.19 ± 0.055 | 3.17 ± 0.049 | 3.36 ± 0.063 |
| KDYSQILKEEFPKIDSL [RPN5] |  | 2.35 ± 0.24 |  |  |
| VPTLEAKRDYIISRLNA [FAS1] | 3.13 ± 0.087 | 3.35 ± 0.16 | 3.05 ± 0.076 | 3.25 ± 0.071 |
| CYFRDFEYCRIDGSTSH [ISW2] | 2.51 ± 0.071 | 2.5 ± 0.079 | 2.48 ± 0.069 | 1.88 ± 0.042 |
| TNHSAAASTPTTTATPH [PGD1] | 2.91 ± 0.033 | 3.026 ± 0.029 | 2.99 ± 0.027 | 2.939 ± 0.023 |
| KANEKKESDESKSAFSF [YJL041W/NSP1] | 2.95 ± 0.099 | 3.4 ± 0.07 | 3.18 ± 0.042 | 3.12 ± 0.043 |
| QKKIQINKEMGELNSKL [SMC3] |  | 3.34 ± 0.21 |  | 3.15 ± 0.13 |
| VDTGLQPQHPHYVSTSK [YLR018C/POM34] | 2.38 ± 0.05 | 2.77 ± 0.045 | 2.88 ± 0.05 | 2.9 ± 0.042 |
| STLEPTLRKELEQIQVQ [YIL149C/MLP2] | 2.75 ± 0.096 | 3.01 ± 0.088 | 2.89 ± 0.062 | 2.3 ± 0.048 |
| NLQQDKTNFQDVILDYQ [REC8] | 3.07 ± 0.069 | 3.19 ± 0.05 | 3.4 ± 0.071 | 3.12 ± 0.041 |

| Sequence | protein stability index (doa10∆) | protein stability index (pdr5∆) | protein stability index (san1∆) | protein stability index (ubr1∆) |
| --- | --- | --- | --- | --- |
| TESVPEPKLFRMRIFAS [RPL20A] | 3.36 ± 0.13 | 3.02 ± 0.18 | 3.02 ± 0.13 | 1.21 ± 0.24 |
| IVAAGGGSGAATFSVSQ [CSL4] |  | 3.47 ± 0.2 |  |  |
| SPEEQRSLLQEAIETCK [GAL11] | 1.88 ± 0.099 | 2.97 ± 0.13 | 2.63 ± 0.18 | 2.88 ± 0.069 |
| GQCRTELEGSFNKSAEL [YCS4] | 3.04 ± 0.09 | 2.51 ± 0.095 | 2.6 ± 0.1 | 2.9 ± 0.081 |
| VNARDIPPLNKSLAMEH [CSN12] | 2.77 ± 0.23 | 2.67 ± 0.17 | 2.61 ± 0.19 |  |
| ENAYDNPLADAEEALEP [PRE4] | 3.1 ± 0.086 | 3 ± 0.082 | 3.1 ± 0.063 | 3.13 ± 0.057 |
| SDKESNAYGFIEWCSRC [YJL039C/NUP192] | 2.98 ± 0.066 | 2.79 ± 0.067 | 2.97 ± 0.053 | 2.73 ± 0.063 |
| EALAFTSLVANENDKIY [YDL116W/NUP84] | 1.85 ± 0.06 | 2.4 ± 0.052 | 2.02 ± 0.12 | 2.93 ± 0.062 |
| FGPIKVELPTKETVEIG [FAS1] | 3.01 ± 0.084 | 3.28 ± 0.07 | 3.23 ± 0.067 | 3.02 ± 0.066 |
| NASDALKGRVVEVCLAD [RPS1B] | 3.34 ± 0.069 | 3.33 ± 0.057 | 3.12 ± 0.051 | 3.03 ± 0.054 |
| GLELSNFKSYRGVTKVG [SMC1] | 3.04 ± 0.094 | 3.09 ± 0.14 | 2.55 ± 0.15 | 2.45 ± 0.12 |
| TLESLENLVVADLESFA [COR1] | 2.47 ± 0.066 | 2.67 ± 0.063 | 2.44 ± 0.065 | 2.3 ± 0.043 |
| AKTFIDLESSSPELKAD [RPS7B] | 3.03 ± 0.086 | 3.4 ± 0.077 | 3.29 ± 0.085 | 3.17 ± 0.085 |
| ALILADSEIEISSEKLL [RPP1A] | 1.95 ± 0.13 | 1.87 ± 0.11 | 1.94 ± 0.096 | 2.06 ± 0.081 |
| ENFLKEVFQLRIFVKEI [GAL11] | 1.81 ± 0.073 | 1.69 ± 0.058 | 1.95 ± 0.063 | 1.52 ± 0.057 |
| CKEVGITAVHVKIRATG [RPS14A] | 1.93 ± 0.043 | 1.82 ± 0.039 | 1.81 ± 0.085 | 1.89 ± 0.035 |
| AKPDARTQAGDIVSIDI [MTW1] | 3.27 ± 0.13 | 3.53 ± 0.13 | 3.55 ± 0.091 | 3.64 ± 0.098 |
| SEQKMKEDADLKRMEIL [SIR4] | 2.99 ± 0.066 | 3.34 ± 0.11 | 3.49 ± 0.059 | 3.28 ± 0.073 |
| SIFAMGLCGAGTNNARL [RPN1] | 2.44 ± 0.058 | 1.27 ± 0.043 | 1.24 ± 0.094 | 1.12 ± 0.039 |
| NRPNTLDPALLRPGRID [RPT1] | 2.72 ± 0.14 | 3.01 ± 0.14 | 3.16 ± 0.064 | 2.61 ± 0.13 |
